Assay [1] addresses HLA-DR15 dimer (DR1501) (human). Put plainly: peptide binding to HLA-DR dimer; EC50 ratio (<20 = high affinity, 20-100 = moderate affinity); method not described.
For assay [2], the target named is HLA-DR7 dimer (DR0701) (human). The description is as above.

In the case of E. rectale Fla1 p445-464 (peptide), the EC50 Ratio in assay [1] amounted to 4.5.
For R. Intest. Fla1 p408-427 (peptide), the EC50 Ratio amounted to 4.1 in assay [1] and 5 in assay [2].

The record behind these values is patent publication US20220088145A1.
